# B1: Inner tegument protein (Human herpesvirus 1 (strain 17) (HHV-1)), P10221 (parent)
# chain: MADRGLPSEAPVVTTSPAGPPSDGPMQRLLASLAGLRQPPTPTAETANGADDPAFLATAKLRAAMAAFLLSGTAIAPADARDCWRPLLEHLCALHRAHGLPETALLAENLPGLLVHRLVVALPEAPDQAFREMEVIKDTILAVTGSDTSHALDSAGLRTAAALGPVRVRQCAVEWIDRWQTVTKSCLAMSPRTSIEALGETSLKMAPVPLGQPSANLTTPAYSLLFPAPFVQEGLRFLALVSNRVTLFSAHLQRIDDATLTPLTRALFTLALVDEYLTTPERGAVVPPPLLAQFQHTVREIDPAIMIPPLEANKMVRSREEVRVSTALSRVSPRSACAPPGTLMARVRTDVAVFDPDVPFLSSSALAVFQPAVSSLLQLGEQPSAGAQQRLLALLQQTWTLIQNTNSPSVVINTLIDAGFTPSHCTHYLSALEGFLAAGVPARTPTGHGLGEVQQLFGCIALAGSNVFGLAREYGYYANYVKTFRRVQGASEHTHGRLCEAVGLSGGVLSQTLARIMGPAVPTEHLASLRRALVGEFETAERRFSSGQPSLLRETALIWIDVYGQTHWDITPTTPATPLSALLPVGQPSHAPSVHLAAATQIRFPALEGIHPNVLADPGFVPYVLALVVGDALRATCSAAYLPRPVEFALRVLAWARDFGLGYLPTVEGHRTKLGALITLLEPAARGGLGPTMQMADNIEQLLRELYVISRGAVEQLRPLVQLQPPPPPEVGTSLLLISMYALAARGVLQDLAERADPLIRQLEDAIVLLRLHMRTLSAFFECRFESDGRRLYAVVGDTPDRLGPWPPEAMGDAVSQYCSMYHDAKRALVASLASLRSVITETTAHLGVCDELAAQVSHEDNVLAVVRREIHGFLSVVSGIHARASKLLSGDQVPGFCFMGQFLARWRRLSACYQAARAAAGPEPVAEFVQELHDTWKGLQTERAVVVAPLVSSADQRAAAIREVMAHAPEDAPPQSPAADRVVLTSRRDLGAWGDYSLGPLGQTTAVPDSVDLSRQGLAVTLSMDWLLMNELLRVTDGVFRASAFRPLAGPESPRDLEVRDAGNSLPAPMPMDAQKPEAYGHGPRQADREGAPHSNTPVEDDEMIPEDTVAPPTDLPLTSYQ
# partner: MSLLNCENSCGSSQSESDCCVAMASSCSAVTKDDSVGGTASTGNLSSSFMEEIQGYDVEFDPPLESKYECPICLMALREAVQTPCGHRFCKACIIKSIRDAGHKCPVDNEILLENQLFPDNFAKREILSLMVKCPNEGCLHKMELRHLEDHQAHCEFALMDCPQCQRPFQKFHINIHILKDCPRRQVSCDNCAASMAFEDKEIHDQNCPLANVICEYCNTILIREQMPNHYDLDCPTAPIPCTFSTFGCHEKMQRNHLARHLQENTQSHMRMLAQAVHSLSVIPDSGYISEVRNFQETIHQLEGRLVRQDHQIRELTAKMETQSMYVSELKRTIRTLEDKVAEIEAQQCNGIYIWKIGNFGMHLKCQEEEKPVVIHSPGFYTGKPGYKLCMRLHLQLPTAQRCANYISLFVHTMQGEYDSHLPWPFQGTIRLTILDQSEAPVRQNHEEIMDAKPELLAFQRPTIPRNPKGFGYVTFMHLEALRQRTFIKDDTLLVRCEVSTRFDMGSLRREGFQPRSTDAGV
# Variants of: B1
# Conditions: with traf6_human TRAF6, Q9Y4K3
row,Variant,effect of a mutation on the interaction
1,E1101A,decreasing interaction strength
